Test results as given in patent US20240342199.

How the values were obtained:
[1] = molecular target: Recombinant CypD Ser123→Ala mutant, P30405
[2] = molecular target: Recombinant GST-CypD (wild type), P30405
[3] = molecular target: Recombinant CypD Ser31/Ser123→Ala double mutant, P30405
[4] = molecular target: Recombinant CypD Ser31→Ala mutant, P30405
Sequence of Recombinant CypD Ser31→Ala mutant, P30405 (P30405 whole entry, looked up, change not shown): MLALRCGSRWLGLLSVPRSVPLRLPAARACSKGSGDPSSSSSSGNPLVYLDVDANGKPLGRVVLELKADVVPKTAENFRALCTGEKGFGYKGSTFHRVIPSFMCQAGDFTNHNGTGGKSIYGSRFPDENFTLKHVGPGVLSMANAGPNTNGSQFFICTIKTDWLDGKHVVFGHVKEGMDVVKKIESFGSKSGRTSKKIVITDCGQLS

Sequence of Recombinant CypD Ser31/Ser123→Ala double mutant, P30405 (P30405 whole entry, looked up, change not shown): as above
Sequence of Recombinant CypD Ser123→Ala mutant, P30405 (P30405 whole entry, looked up, change not shown): as above
Sequence of Recombinant GST-CypD (wild type), P30405 (P30405 whole entry): as the sequence (P30405 whole entry, looked up, change not shown) above

B1: active Akt2 (protein)
chain: MNEVSVIKEGWLHKRGEYIKTWRPRYFLLKSDGSFIGYKERPEAPDQTLPPLNNFSVAECQLMKTERPRPNTFVIRCLQWTTVIERTFHVDSPDEREEWMRAIQMVANSLKQRAPGEDPMDYKCGSPSDSSTTEEMEVAVSKARAKVTMNDFDYLKLLGKGTFGKVILVREKATGRYYAMKILRKEVIIAKDEVAHTVTESRVLQNTRHPFLTALKYAFQTHDRLCFVMEYANGGELFFHLSRERVFTEERARFYGAEIVSALEYLHSRDVVYRDIKLENLMLDKDGHIKITDFGLCKEGISDGATMKTFCGTPEYLAPEVLEDNDYGRAVDWWGLGVVMYEMMCGRLPFYNQDHERLFELILMEEIRFPRTLSPEAKSLLAGLLKKDPKQRLGGGPSDAKEVMEHRFFLSINWQDVVQKKLLPPFKPQVTSEVDTRYFDDEFTAQSITITPPDRYDSLGLLELDQRTHFPQFSYSASIRE
kinase assay with recombinant proteins, 32P-ATP, autoradiography [1]: readily phosphorylated | kinase assay with recombinant proteins, 32P-ATP, autoradiography [2]: readily phosphorylated | kinase assay with recombinant proteins, 32P-ATP, autoradiography [3]: abolished Akt phosphorylation of CypD | kinase assay with recombinant proteins, 32P-ATP, autoradiography [4]: abolished Akt phosphorylation of CypD
